Results: paper PMC8448959 (ACS chemical biology, 2021)
Read-outs that look alike come from different tables or passages of the source. Square brackets hold non-standard residues; d marks the D form. Ends that are not written are not given here. * marks the point of attachment. Lys(Et,iPr) = CCN(CCCC[C@H](N)C(=O)O)C(C)C; 4‑piperidine cap = not defined here; cyclohexyl = C1CCC(*)CC1

T1: MPP8 chromodomain (residues 55-116), N-terminal His-tag (UniProt Q99549-1 55-116)
T1 sequence (looked up): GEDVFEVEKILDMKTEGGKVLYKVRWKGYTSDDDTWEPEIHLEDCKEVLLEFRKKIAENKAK

T2: CDYL2 chromodomain (residues 1-75), C-terminal His-tag (UniProt Q8N8U2 1-75)
T2 sequence (looked up): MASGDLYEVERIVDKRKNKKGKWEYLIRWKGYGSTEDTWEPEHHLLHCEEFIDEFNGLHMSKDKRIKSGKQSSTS

T3: CBX7 chromodomain (residues 8-62), C-terminal His-tag (UniProt O95931 8-62)
T3 sequence (looked up): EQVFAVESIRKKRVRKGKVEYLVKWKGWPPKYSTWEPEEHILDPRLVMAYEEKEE


Key:
Assay in all cases: AlphaScreen or HTRF
[1] = target: T1, MPP8 chromodomain (residues 55-116), …
[2] = target: T2, CDYL2 chromodomain (residues 1-75), …
[3] = target: T3, CBX7 chromodomain (residues 8-62), …
[4] = target: T1, MPP8 chromodomain (residues 55-116), …; remark: listed apart in the source
[5] = target: T3, CBX7 chromodomain (residues 8-62), …; remark: listed apart in the source

Binder	IC50 [1]	IC50 [2]	IC50 [3]	IC50 [4]	IC50 [5]
FAFKS (N-terminal 4-piperidine cap; lysine mimetic with increased steric bulk on the lysine amine; C-terminal methyl ester) [UNC6254]	800 nM	200 nM	> 30000 nM	–	–
FAF[Lys(Et,iPr)]S-OMe (not fully specified (N-terminus); also: N-terminal cap R1 not given here) [UNC6263]	–	–	–	900 nM	6000 nM
FAF[Lys(Et,iPr)]S-OMe (not fully specified (N-terminus); also: N-terminal cap R1 not given here) [UNC6257]	–	–	–	400 nM	7000 nM
{4‑piperidine cap}-FAFKS-OMe (reading uncertain; also: lysine mimetic with a piperidine substituent) [UNC6127]	700 nM	200 nM	> 30000 nM	–	–
{4‑piperidine cap}-FAFKS-OMe (reading uncertain; also: Lys4: lysine mimetic with a pyrroline substituent) [UNC6262]	1400 nM	700 nM	> 30000 nM	–	–

The remaining binders from weak to strong by IC50 [1], led by results:

IC50 [1]	IC50 [2]	IC50 [3]	IC50 [4]	IC50 [5]	Binder
500 nM	100 nM	> 30000 nM	–	–	{4‑piperidine cap}-FAFKS-OMe (reading uncertain; also: Lys4: lysine mimetic with a tetrahydropyran substituent) [UNC6218]
450 nM	90 nM	> 30000 nM	–	–	FAFKS (N-terminal 4-piperidine cap; lysine mimetic with a methyl-cyclopentyl amine; C-terminal methyl ester) [UNC6216]
400 nM	70 nM	> 30000 nM	–	–	{4‑piperidine cap}-FAFK(cyclohexyl)S-OMe (reading uncertain; also: Lys4: lysine mimetic with a cyclohexyl substituent) [UNC6217]
